Data taken from paper PMC8358021.

Experiments:
[1] = target: AbApeR (FabB-like homodimeric ketosynthase of the A. baumannii APE gene cluster) (Acinetobacter baumannii); experiment: ITC; 2.0 mM holo ACP1 or holo ACP2 injected (19 injections of 3 µl) into 0.1 mM AbApeO-AbApeC or AbApeR; 25 °C; 40 mM potassium phosphate pH 7.0; 2 mM 2-mercaptoethanol
[2] = target: AbApeO-AbApeC heterodimer (ketosynthase-chain length factor complex of the aryl polyene biosynthesis gene cluster of Acinetobacter baumannii) (Acinetobacter baumannii); experiment: as above

- Kd [1]: 18 µM
- stoichiometry N [1]: 1.55
- Kd [2]: 0.074 µM
- stoichiometry N [2]: 1.63
Substance: holo ACP1 (ApeE), acyl carrier protein 1 of the A. baumannii APE gene cluster (natural protein)
